One test concerns the target T1, His-tagged ERK2 (UniProt P28482 1-360).
T1 construct: Extracellular signal-regulated protein kinase 2 (ERK2); Built in pET28a; also called His-tagged ERK1/2; source: E. coli BL21, purified (His-Sepharose beads)
The test can be described thus: pull-down; GST pull-down: purified GST-SIX1 fusion protein with purified His-tagged ERK1/2. The note with it: both partners purified.

A further test concerns the target T2, His-tagged ERK1 (UniProt P27361 1-379).
T2 construct: Extracellular signal-regulated protein kinase 1 (ERK1); Built in pET28a; also called His-tagged ERK1/2; source: E. coli BL21, purified (His-Sepharose beads)
The test is described as above. Conditions: both partners purified.

T2 sequence (P27361 whole entry): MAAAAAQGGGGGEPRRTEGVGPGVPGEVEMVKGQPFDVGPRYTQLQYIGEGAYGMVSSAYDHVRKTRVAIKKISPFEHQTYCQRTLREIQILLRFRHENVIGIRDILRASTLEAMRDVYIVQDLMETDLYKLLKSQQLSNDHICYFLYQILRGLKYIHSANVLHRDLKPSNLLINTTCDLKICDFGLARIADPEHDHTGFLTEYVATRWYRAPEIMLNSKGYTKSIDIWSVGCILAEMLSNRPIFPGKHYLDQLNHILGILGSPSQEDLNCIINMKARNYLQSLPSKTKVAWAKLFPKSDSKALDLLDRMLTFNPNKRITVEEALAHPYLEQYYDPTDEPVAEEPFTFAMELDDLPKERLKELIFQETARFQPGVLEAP
T1 sequence (P28482 whole entry): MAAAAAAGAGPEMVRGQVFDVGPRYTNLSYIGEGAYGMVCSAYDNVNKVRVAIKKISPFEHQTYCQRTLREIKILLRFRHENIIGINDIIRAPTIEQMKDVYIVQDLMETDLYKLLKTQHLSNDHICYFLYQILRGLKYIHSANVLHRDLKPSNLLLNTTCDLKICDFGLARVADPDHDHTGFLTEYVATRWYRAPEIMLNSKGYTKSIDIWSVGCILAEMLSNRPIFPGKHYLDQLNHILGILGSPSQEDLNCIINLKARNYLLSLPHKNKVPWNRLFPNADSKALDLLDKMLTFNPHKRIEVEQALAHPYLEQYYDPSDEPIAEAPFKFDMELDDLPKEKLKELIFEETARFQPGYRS

B1: GST-SIX1 fusion protein (natural protein, human, UniProt Q15475 1-284, looked up)
chain: MSMLPSFGFTQEQVACVCEVLQQGGNLERLGRFLWSLPACDHLHKNESVLKAKAVVAFHRGNFRELYKILESHQFSPHNHPKLQQLWLKAHYVEAEKLRGRPLGAVGKYRVRRKFPLPRTIWDGEETSYCFKEKSRGVLREWYAHNPYPSPREKRELAEATGLTTTQVSNWFKNRRQRDRAAEAKERENTENNNSSSNKQNQLSPLEGGKPLMSSSEEEFSPPQSPDQNSVLLLQGNMGHARSSNYSLPGLTASQPSHGLQTHQHQLQDSLLGPLTSSLVDLGS
notes: Sine oculis homeobox 1 (SIX1), human; Built in pGEX-KG; source: E. coli BL21, purified (glutathione-Sepharose 4B)
In the case of B1, the binding result with His-tagged ERK2 and with His-tagged ERK1 was “binds” in each case.

The values are drawn from publication PMC11609306, “Phosphorylation determines the glucose metabolism reprogramming and tumor-promoting activity of sine oculis homeobox 1” (Signal Transduction and Targeted Therapy, 2024).
